We go through 2 molecules from patent publication US20210309978A1, “POLYNUCLEOTIDE SEQUENCE ENCODING A LOCAL SOURCED NOVEL ESTERASE” (ISTANBUL TEKNIK UNIVERSITESI, priority 2018, published 2021).

Series [1] has as its system esterase enzyme. Kind of series: Effect of sodium chloride on enzyme activity. The class given is biochemical, microflora of Ac1göl (Aci Lake). As to the method: (§1) 6. Standard activity test: Activity has been measured based on the pNP measurement that is obtained by the hydrolysis of the paranitfrophenol (pNP) esters by the enzyme (Winkler and Stuckmann, 1979). The final concentration of the enzyme and substrate have been 1 μM and 1 mM respectively and absorbance measurements have been taken at 410 nm. The activity has been calculated by means of the below formula and one unit of activity has been defined as the enzyme amount which produces 1 μmol product in 1 minute.
(§2) Activity (U/L)=[(ΔAbs/t)/(ε*d)]*106*Vt/Vs • ΔAbs=Absorbance change; t=time (minute); ε=extinction coefficient (M−1 cm−1); d=light path (cm); Vt=total reaction volume; Vs=enzyme volume used in reaction.
(§3) The effect of sodium chloride on the activity (5%, 10%, 15%, 20% and 25% NaCl) and the stability (10%, 15%, 20% and 25% NaCl) of the enzyme has been determined similarly. The enzyme has been incubated in a buffer solution comprising sodium chloride at the defined amounts for 24 hours during stability tests.

For series [2], the system named is esterase enzyme. Kind of series: Effect of sodium chloride on enzyme stability (24 hours incubation). The class given is biochemical, microflora of Ac1göl (Aci Lake). As to the method:
as §1, §2, §3

Series [3] in a line: Effect of pH on enzyme activity. The class given is biochemical, microflora of Ac1göl (Aci Lake). The protocol:
as §1, §2
(§4) 8. Measuring the activity and stability of the enzyme under different conditions: Reactions have been carried out in buffer solutions (50 mM citrate/phosphate buffer, pH 6; 50 mM Tris-HCl buffer, pH 7, 8 and 8.5; 50 mM glycine-NaOH buffer, pH 9, 9.5 and 10) having different pH values in order to determine the optimum pH value in which the enzyme works. Moreover, in order to measure the pH stability of the enzyme, the enzyme has been incubated for 24 hours before reaction in these buffer solutions and the activity value remaining at the end of the incubation has been calculated.

Series [4] is classed as biochemical, microflora of Ac1göl (Aci Lake). As to the method: as §1, §2
(§5) The reaction has been carried out under different temperatures (5° C.-70° C.) in order to determine the optimum temperature in which the enzyme works efficiently, and the activity has been measured. In order to determine the thermal stability of the enzyme, the enzyme has been incubated for 20 minutes between 25° C.-80° C. temperature and the remaining activity has been measured according to standard tests.

Series [5] is classed as biochemical, microflora of Ac1göl (Aci Lake). As to the method: as §1, §2, §4
The source holds these as a separate data set.

A short description of series [6]: Effect of temperature on enzyme activity (standard pNP ester activity test). The class given is biochemical, microflora of Ac1göl (Aci Lake). As to the method:
as §1, §2, §5

Several values for one entry are separate records, joined by “and”; a condition that tells them apart may be missing. Equal values may be shown once.

With `[Cl-].[Na+]` [sodium chloride], the “The effect of sodium chloride on activity, Activity (%)” value is 100 ± 1.9% in the series on esterase enzyme [1] (Concentration 1 %); 90.2 ± 2.1% with esterase enzyme [1] (Concentration 5 %); 79.2 ± 5% in the series on esterase enzyme [1] (Concentration 10 %); 52 ± 5.3% in the series with esterase enzyme [1] (Concentration 15 %); 39.2 ± 6.3% in the series on esterase enzyme [1] (Concentration 20 %). In addition, the “The effect of sodium chloride on stability, Activity (%)” value in the series with esterase enzyme [2] (Concentration 10.0 %) is given as 100 ± 4.8%; in the series with esterase enzyme [2] (Concentration 15.0 %), 99 ± 1.8%; with esterase enzyme [2] (Concentration 20.0 %) it was 102.7 ± 1%; in the series with esterase enzyme [2] (Concentration 25.0 %), 101.4 ± 4.5%.

B1: enzyme: novel esterase (SEQ ID NO: 2, 260 amino acids) obtained by metagenomic method from the microflora of Ac1göl (protein)
chain: MTVDLNHLDTGGEGIPLVVIHGLLGSADNWRSHVKQWQQQCRVVAVDLRNHGRSPHADGMSYAAMAADLEALLDRLGIERAHLLGHSMGGKVAISVARLHPQRVASLIVADIAPQAYGHDHDAVFAGLRRVEQGQPGNRREADALLAEHVEERAVRLFLATNLERDDDGILRLRIGLDEIEGDYDAIMQAPAGEGSYDGPVLVLRGDRSPYVTDAMLPRLHQVLPQAQLVTLENAGHWLHAEQPEAFQAAVNDFLASLEA
modifications: Metagenomic Sequence
As for B1, the “pH value at which the enzyme worked best” value in series [3] stood at 9 pH. Besides, the “The effect of pH on activity, Activity (%)” value in series [3] (pH 6) is recorded as 10.3 ± 4.1%; in series [3] (pH 7), 68.8 ± 8.2%; in series [3] (pH 8), 77.1 ± 6.8%; in series [3] (pH 8.5), 84 ± 5.2%; in series [3] (pH 9), 100 ± 1.3%; in series [3] (pH 9.5), 84.9 ± 1.5%. Besides, the “The effect of pH on activity, Activity (%)” value in series [3] (pH 10) was determined as 20 ± 8.1%. Besides, the “temperature up to which the enzyme maintained the stability” value in series [4] is “up to 55 °C”. Moreover, in series [5], the “pH up to which the enzyme maintained its stability” value is reported as no more than 10 pH. Besides, in series [6], the “temperature of best activity” value worked out at 30 °C. The “Effect of temperature on activity, Activity (%)” value (“Effect of temperature … (%)” for short) in series [6] (reaction at 5 ° C.) was 47% and 46.6 ± 6.1%; in series [6] (reaction at 10 ° C.) it was 53.8 ± 7.4%; in series [6] (reaction at 15 ° C.), 63% and 63.1 ± 5.1%; in series [6] (reaction at 20 ° C.), 76.9 ± 4.4%; in series [6] (reaction at 25 ° C.), 93.1 ± 6.3%; in series [6] (reaction at 30 ° C.) it was 100 ± 4.8%. Besides, the “Effect of temperature … (%)” value in series [6] (reaction at 35 ° C.) amounted to 94.4 ± 1.5%; in series [6] (reaction at 40 ° C.), 82.4 ± 2.8%; in series [6] (reaction at 45 ° C.) it was 22.5 ± 0.8%; in series [6] (reaction at 50 ° C.), 17.7 ± 0.3%; in series [6] (reaction at 55 ° C.) it was 14.4 ± 4.5%; in series [6] (reaction at 60 ° C.), 12.9 ± 2.9%. The “Effect of temperature … (%)” value amounted to 11.1 ± 4.2% in series [6] (reaction at 65 ° C.) and 8.2 ± 0.8% in series [6] (reaction at 70 ° C.).
